Values quoted from earlier work, collected in publication PMC8781899.
Like-named read-outs stand apart in the source and are kept apart here.

How the values were obtained:
DR4 (Homo sapiens) [1] = biological target: DR4 (Homo sapiens) (UniProt O00220)
DR4 (Homo sapiens) [2] = biological target: DR4 (Homo sapiens) (UniProt O00220); remark: listed apart in the source

Sequence of UniProt O00220 (O00220 24-468): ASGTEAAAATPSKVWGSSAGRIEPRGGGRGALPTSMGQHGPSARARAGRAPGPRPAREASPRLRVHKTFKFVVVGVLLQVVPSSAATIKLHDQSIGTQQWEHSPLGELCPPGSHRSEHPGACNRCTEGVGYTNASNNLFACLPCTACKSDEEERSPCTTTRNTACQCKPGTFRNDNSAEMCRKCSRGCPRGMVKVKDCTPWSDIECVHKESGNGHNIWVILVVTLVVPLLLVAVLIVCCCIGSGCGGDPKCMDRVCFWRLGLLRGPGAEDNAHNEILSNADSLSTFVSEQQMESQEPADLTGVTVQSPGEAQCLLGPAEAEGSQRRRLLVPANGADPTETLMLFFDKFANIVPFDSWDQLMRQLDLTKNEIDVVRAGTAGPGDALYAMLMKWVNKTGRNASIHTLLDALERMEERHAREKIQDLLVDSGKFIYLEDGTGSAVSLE
Sequence of TRAIL (P50591 whole entry): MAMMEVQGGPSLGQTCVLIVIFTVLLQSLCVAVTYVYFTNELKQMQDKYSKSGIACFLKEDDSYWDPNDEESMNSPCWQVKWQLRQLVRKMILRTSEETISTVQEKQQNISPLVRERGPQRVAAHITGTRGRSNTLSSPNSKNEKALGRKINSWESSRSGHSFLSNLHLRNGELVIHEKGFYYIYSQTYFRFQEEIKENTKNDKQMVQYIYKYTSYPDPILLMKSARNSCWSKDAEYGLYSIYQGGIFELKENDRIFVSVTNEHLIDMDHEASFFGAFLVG

| Kd (DR4 (Homo sapiens) [1]) [nM] | Kd (DR4 (Homo sapiens) [2]) [nM] | Substance |
| --- | --- | --- |
| 0.17 | – | TRAIL (from UniProt P50591) |
| – | 2.9 | TRAIL D269H/E195R (DHER) (from UniProt P50591) |
